“Also recorded” adds a separate entry of the source.
How the values were obtained:
[1] = system: WT FLT3-ITD mice (FLT3-ITD-driven myeloproliferative disorder)
Procedure: For treatment, two- and eight-weeks post transplantation animals were randomly divided into groups of eight. Mice were i.v. injected twice per week with either isotype control (5 mg/kg; RTK2071; Biolegend), Etanercept (Enbrel®, 50 ng/ml; Pfizer), rm LT-α (250 μg/kg; Cusabio), a-TNF (5 mg/kg; MP6-XT22; Biolegend), or rm LT-α plus a-TNF.
Mice with disease were sacrificed. Peripheral blood white blood cell counts (WBC) were measured by scil Vet abc (scil animal care company). Single-cell suspensions of indicated tissue samples were prepared and red blood cells of peripheral blood were lysed before analysis. Cells were pre-incubated with Fc-block and subsequently stained with fluorescently labeled antibodies. Dead cells were excluded by PI (Sigma) or Zombie Aqua™ Fixable Viability Kit (Biolegend) staining according to the manufacturer's instructions.

FLT3-ITD-transduced BM = assay: Colony forming cell assay (CFU-GEMM) of FLT3-ITD-transduced bone marrow; assay type: cell-based, mouse; conditions: WT FLT3-ITD transduced cultures; rm LT-α 100 ng/ml, rm TNF 100 ng/ml, Etanercept 50 ng/ml; counted after 10 days; vs control
Procedure: For colony forming cell assays, all duplicate cultures were performed in 35 mm petri dishes in murine methylcellulose medium (Methocult, Stem Cell Technologies). BM cells of unchallenged or 5-FUchallenged mice were plated in M3434. […] For analysis of colony forming units (CFU) cell viability, colonies were grown for 10 days in the presence of propidium iodide (PI) (0.8 μg/ml; Sigma) and representative CFU-GEMM were imaged using a Keyence BZ-9000 (Biorevo) fluorescence microscope.

AML cell lines = assay: Relative number of cells in AML cell lines after treatment (flow cytometry); assay type: cell-based, human; conditions: panel of nine AML cell lines; 7 days; vs untreated cells
Procedure: All centrifugation steps were performed at 400×g.

[2] = system: AML primary human samples; assay: Primary AML bone marrow samples treated in vitro for 7 days (Lin- cells, LSC, CD99- HSPC); assay type: cell-based; conditions: for cell death of AML cells (blasts, LSCs), comparison between treatments: 7-day treatment of AML primary human samples
Text: Primary and secondary AML samples were obtained from patients enrolled in the clinical trial AMLCG-2008 (http://clinicaltrial.gov identifier NCT01382147), the AML register protocol of the AML Register and Biomaterial Database of the German Leukemia Study Alliance, the AML register protocol of the German AML Cooperative Group Version 2.0 from Jan. 6, 2011, the AML register protocol of the German AML study group, or treated at the III. Medical Department at the Technical University of Munich after approval of the local ethics committee (approval no. 62/16 S from Feb. 10, 2016 to 2790/10 from Apr. 30, 2010). Informed consent was obtained from patients at study entry.
To examine how targeting TNF/ LT-α signaling can be most effectively used to treat AML, the inventors treated AML primary human samples in vitro. LT-α and a-TNF (Adalimumab) were evaluated, alone or in combination. Moreover, LT-α was tested in combination with the standard AML chemotherapeutic Cytarabine (CYT), the clinical SMAC mimetic Birinapant, and the clinical pan-caspase inhibitor Emricasan. Drug concentrations were determined after titration in healthy bone marrow samples and AML cell lines (data not shown). After 7-day-treatment, cell viability was evaluated, using CD99 to discriminate between non-leukaemogenic HSPCs (CD99^−) and LSCs (FIG. 4c).

K562 = assay: Relative number of K562 CML cells after treatment; conditions: alone or with imatinib 1 or 10 μM; vs untreated cells
Procedure: As a model for CML, LT-α was tested for potential effects on the cell line K562, either separately against the standard therapy imatinib (in concentrations of 1 or 10 μM) alone, or in combination (FIG. 5).

healthy BM [3] = assay: Hematopoietic cell subsets in healthy bone marrow treated with LT-α; conditions: 100 ng/ml LT-α
Procedure: (§1) Human primary samples: Bone marrow mononuclear cells (BMMC) were isolated from heparinized bone marrow samples or bone chips by centrifugation over a Ficoll-Hypaque layer (Biochrom) of 1.077 g/ml density. Cells were harvested and used directly for immunephenotyping or cultured in IMDM (Gibco) supplemented with 20% fetal calf serum (FCS; PAN-Biotech), penicillin/streptomycin 0.05 mM, L-glutamine 2 mM, and 2-mercaptoethanol 0.05 mM (Gibco) on EL08-1D2 stromal cells.
(§2) For flow cytometry analysis after treatment, BM cells or AML cell lines were cultured as described above for 7 days in the presence of the following cytokines and inhibitors if indicated and not stated otherwise: Etanercept (Enbrel®; 50 ng/ml; Pfizer), recombinant human (rh) LT-α (100 ng/ml; R&D), rh TNF (100 ng/ml; R&D), Emricasan (2.5 nM; SelleckChem), Birinapant (10 nM; SelleckChem), Cytarabine (100 nM), a-LTα-Ig (10 μg/ml; 359-238-8; Biolegend), Adalimumab (Humira®; 500 ng/ml; Abbvie), and respective isotype controls Mouse IgG1, κ (MOPC-21; Biolegend), and Ultra-LEAF™ purified Human IgG1 (QA16A12; Biolegend).
(§3) Non-leukemia control samples were collected from individuals who underwent bone marrow aspiration for diagnostic purposes and in whom subsequently a hematological disease was ruled out. Healthy controls were isolated from the femoral heads of patients who underwent surgical hip replacement.
(§4) Antibodies used to separate human hematopoietic cell subsets, for immunephenotyping and intracellular protein expression analysis: Fluorescently labelled antibodies against Lineage Cocktail (Cat #348801; 348703), CD45RA (HI100), CD34 (581), CD38 (HB-7), CD99 (3B2/TA8), CD123 (5B11) were obtained from Biolegend. Flow analysis was performed on a BD FACS Canto II (BD Biosciences) and data were analyzed using FlowJo software (Tree Star).

healthy BM [4] = system: healthy BM
Procedure: as §1, §2, §3, §4

[5] = WT FLT3-ITD mice, treated twice per week
[6] = compared to controls, data not shown

Etanercept
remission / disease outcome [1, 5]: rapidly succumbed to disease | Median survival ([1]; WT mice transplanted with FLT3-ITD-transduced WT BM, treated i.v. twice per week): 65 days | WBC counts [1, 6]: considerably elevated | hepato-splenomegaly [1, 6]: increased | latency [1, 6]: reduced | leukemic burden [1, 6]: elevated | number of primitive leukemic cells [1, 6]: drastically increased | number of GEMM colonies (FLT3-ITD-transduced BM): increase | number of AML cells (AML cell lines): not observed

adalimumab
number of AML cells (AML cell lines): drastic reduction

C[C@H](NC(=O)C(=O)Nc1ccccc1C(C)(C)C)C(=O)N[C@@H](CC(=O)O)C(=O)COc1c(F)c(F)cc(F)c1F [Emricasan, reference compound]
cell death of AML cells (blasts, LSCs), comparison between treatments [2]: resistant to LT-α- and Birinapant-induced cell death

CC[C@H](NC(=O)[C@H](C)NC)C(=O)N1C[C@@H](O)C[C@H]1Cc1c(-c2[nH]c3cc(F)ccc3c2C[C@@H]2C[C@H](O)CN2C(=O)[C@H](CC)NC(=O)[C@H](C)NC)[nH]c2cc(F)ccc12 [Birinapant, reference compound]
cell death of AML cells (blasts, LSCs), comparison between treatments [2]: better at promoting cell death, both of blasts and LSCs, than Cytarabine

B1: LT-α: Lymphotoxin alpha polypeptide (SEQ ID No. 1/2); recombinant mouse LT-α used in mouse tests, recombinant human LT-α in human cell tests (protein, UniProt P01374 35-205, looked up)
Lymphotoxin-alpha: LPGVGLTPSAAQTARQHPKMHLAHSTLKPAAHLIGDPSKQNSLLWRANTDRAFLQDGFSLSNNSLLVPTSGIYFVYSQVVFSGKAYSPKATSSPLYLAHEVQLFSSQYPFHVPLLSSQKMVYPGLQEPWLHSMYHGAAFQLTQGDQLSTHTDGIPHLVLSPSTVFFGAFAL
modifications: mouse LT-α also used
effect on K562 cells (relative number of cells) (K562): significant effects; also recorded: kills blast cells | toxic effect on healthy bone marrow (healthy BM [3]; bone marrow samples from healthy control patients): not elicit any detectable toxic effect | healthy haematopoiesis (HSCs and myeloid progenitor subsets) (healthy BM [3]; healthy BM): sustained | cell death of AML cells (blasts, LSCs), comparison between treatments [2]: more effectively than the standard AML chemotherapeutic Cytarabine; also recorded: more efficient manner than a-TNF | non-leukaemogenic HSPCs (CD99-) ([2]; 7-day treatment, a-TNF = Adalimumab): promoted expansion | Lin- cells (bulk of AML blasts and healthy HSPCs) ([2]; 7-day treatment, rh LT-α 100 ng/ml): killed | LSCs in AML BM samples ([2]; 7-day treatment, rh LT-α 100 ng/ml, a-TNF = Adalimumab 500 ng/ml): killed | toxicity to healthy controls / healthy cells (healthy BM [4]): lacks any pronounced cytotoxicity | tolerability in vivo ([1]; WT FLT3-ITD mice, i.v. twice per week): well tolerated | remission / disease outcome [1, 5]: induced durable remissions | LSCs in FLT3-ITD-transplanted mice ([1]; treated twice per week): eradicates LSCs | number of GEMM colonies (FLT3-ITD-transduced BM): significantly reduced | number of AML cells (AML cell lines): significantly decreased

From patent US20220193195A1, “LYMPHOTOXIN ALPHA FOR USE IN THERAPY OF MYELOID LEUKEMIA” (Klinikum Rechts der Isar der Technischen Universität München, priority 2019, published 2022)
